Reference: publication PMC5074588

Target: tubulins (tubulin dimers; paclitaxel-stabilized microtubules)
Test: co-sedimentation; different concentrations of the protein added to paclitaxel-stabilized microtubules (prepolymerized from 8 uM tubulins in Fig 5A, 5 uM in S7 Fig) in PEMT buffer (1 mM MgCl2, 1 mM EGTA, 100 mM PIPES, 20 uM taxol, pH 6.9); 25 C 30 min; 100,000g 30 min; SDS-PAGE, Coomassie

tubulins (tubulin dimers; paclitaxel-stabilized microtubules), sequence (P02550 whole entry, chain 1 of 2): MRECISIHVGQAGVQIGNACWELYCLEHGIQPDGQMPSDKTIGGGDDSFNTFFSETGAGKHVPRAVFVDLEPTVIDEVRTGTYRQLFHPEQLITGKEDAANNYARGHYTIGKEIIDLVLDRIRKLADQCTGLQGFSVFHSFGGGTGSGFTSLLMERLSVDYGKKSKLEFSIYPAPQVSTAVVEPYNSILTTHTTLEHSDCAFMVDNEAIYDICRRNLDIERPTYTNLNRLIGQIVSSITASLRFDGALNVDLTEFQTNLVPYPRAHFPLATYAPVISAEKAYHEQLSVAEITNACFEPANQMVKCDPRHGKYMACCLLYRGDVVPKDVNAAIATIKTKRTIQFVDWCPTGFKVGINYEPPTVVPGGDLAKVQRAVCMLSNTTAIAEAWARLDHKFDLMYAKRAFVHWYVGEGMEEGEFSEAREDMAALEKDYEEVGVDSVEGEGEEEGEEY
tubulins (tubulin dimers; paclitaxel-stabilized microtubules), sequence (P02554 whole entry, chain 2 of 2, further chain): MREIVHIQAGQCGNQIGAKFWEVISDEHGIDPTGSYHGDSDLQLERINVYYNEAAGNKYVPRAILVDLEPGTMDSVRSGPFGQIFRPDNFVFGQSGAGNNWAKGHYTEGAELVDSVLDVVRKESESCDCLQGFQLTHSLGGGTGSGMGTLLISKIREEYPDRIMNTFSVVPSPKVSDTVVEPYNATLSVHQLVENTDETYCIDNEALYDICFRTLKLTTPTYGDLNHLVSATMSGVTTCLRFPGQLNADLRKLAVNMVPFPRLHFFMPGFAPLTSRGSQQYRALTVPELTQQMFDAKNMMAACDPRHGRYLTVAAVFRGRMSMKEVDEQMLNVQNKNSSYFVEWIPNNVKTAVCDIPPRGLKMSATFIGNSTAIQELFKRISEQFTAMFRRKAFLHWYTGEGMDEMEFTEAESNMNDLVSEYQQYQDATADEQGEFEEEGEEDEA

## His-AUG8 (AUGMIN subunit 8) (natural protein)
  stoichiometry N (M His-AUG8 per mole of tubulin dimers): 0.22
